# Data as given in the RNAGym collection of RNA variant scans (doi:10.1073/pnas.2313332121).
# B1: TPR t1 (parent)
# chain: GACCAAUCUGCCCUCAGAGCUCGAGAACAUCUUCGGAUGCAGAGGAGGCAGGCUUCGGUGGCGCGAUAGCGCCAACGUCCUCAACCUCCAAUGCAUCCCACCACAUGAUGAUGCCUGAAGAGCCUUGGUUUUUUG
# Variants of: B1
# Assay: polymerase ribozyme fitness, log enrichment relative to wild type (log ratio); higher = more active; in vitro selection for triplet polymerase activity
# How it was run: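 After PCR construction and transcription, each subunit's mutant library from a heterodimeric triplet polymerase ribozyme was annealed with a biotinylated primer, the partner subunit and triplets. Incubation was frozen, at −7 °C, and extended constructs were gel-excised, bound to streptavidin beads and amplified by RT-PCR, in one selection round done in triplicate. Fitness is the logarithm of a genotype's enrichment divided by that of the wild type, from inverse-variance-weighted replicate averages of Illumina-sequenced inputs and outputs. The base of the logarithm is 2, and genotypes needed ≥10 input reads and ≥1 read per output.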
row,Variant,polymerase ribozyme fitness (log ratio)
1,GACCAAUCUGCCCUCAGAGCUCGAGAACAUCUUCGGAUGCAGAGGAGGCAGGCUUCAGUGGCACGAUAGCGCCAACGUCCUCAACCUCCAAUGCAUCCCACCACAUGAUGAUGCCUGAAGAGCCUUGGUUUUUUG,-2.04
2,GACCAAUCUGCCCUCAGAGCUCGAGAACAUCUUCGGAUGCAGAGGAGGCAGGCUUCAGUGGCGCGAUAGCGCCAACGUCCUCAACCUCCAAUGCAUCCUACCACAUGAUGAUGCCUGAAGAGCCUUGGUUUUUUG,-4.88
3,GACCAAUCUGCCCUCAGAGCUCGAGAACAUCUUCGGAUGCAGAGGAGGCAGGCUUCAGUGACGCGAUAGCGCCAACGUCCUCAACCUCCAAUGCAUCCCACCAUAUGAUGAUGCCUGAAGAGCCUUGGUUUUUUG,-0.114
4,GACCAAUCUGCCCUCAGAGCUCGAGAACAUCUUCGGAUGCAGAGGAGGCAGGCUUCAGUGGCGCGAUAGCGCCAACGUCCUCAACCUCCAAUGCAUCCCACCACAUGAUGAUGCGUGAAGAGCCUUGGUUUUUUG,-2.25
5,GACCAAUCUGCCCUCAGAGCUCGAGAACAUCUUCGGAUGCAGAGGAGGCAGGCUUCAGUGGCGCGAUAGCGCCAACGUCCUCAACCUCCAAUGCAUCCCACCGCAUGAUGAUGCCUGAAGAGCCUUGGUUUUUUG,-4.05
6,GACCAAUCUGCCCUCAGAGCUCGAGAACAUCUUCGGAUGCAGAGGAGGCAGGCUUUGGUUGCGCGAUAGCGCCAACGUCCUCAACCACCAAUGCAUCCCACCACAUGAUGAUGCCUGAAGAGCCUUGGUUUUUUG,-3.76
7,GACCAAUCUGCCCUCAGAGCUCGAGAACAUCUUCGGAUGCAGAGGAGGCAGGCUUUGGUGGCGCGAUAGCGCCAACGUCCUCAACCUCCAAUACAUUCCACCACAUGAUGAUGCCUGAAGAGCCUUGGAUUUUUG,-2.25
8,GACCAAUCUGCCCUCAGAGCUCGAGAACAUCUUCGGAUGCAGAGGAGGCAGGCUUUGGUGGCGCGAUAGCGCCAACGUCCUCAACCUCCAAUGCAUCCCACCACAUGAUGAUGCCUGAAGAGCCUUGGUUGUUUG,0.127
9,GACCAAUCUGCCCUCAGAGCUCGAGAACAUCUUCGGAUGCAGAGGAGGCAGGCUUUGGUGGCGCGAUAGCGCCAACGUCCUCAACCUCCAAUGCAUCCCACCACAUGAUGAUGCCUGAAGAGCCUUGGUUUUAUG,-0.575
10,GACCAAUCUGCCCUCAGAGCUCGAGAACAUCUUCGGAUGCAGAGGAGGCAGGCUUUGGUGGCGCGAUAGCGCCAACGUCCUCAACCUCCAAUGCAACCCACCACAAGAUGAUGCCUGAAGAGCCUUGGUUUUUUG,-0.662
11,GACCAAUCUGCCCUCAGAGCUCGAGAACAUCUUCGGAUGCAGAGGAGGCAGGCUUUGGUGGCGCGAUAGCGCCAACGUCCUCAACCUCCAAUGCAGCCCAACACAUGAUGAUCCCUGAAGAGCCUUGGUUUUUUG,-3.97
12,GACCAAUCUGCCCUCAGAGCUCGAGAACAUCUUCGGAUGCAGAGGAGGCAGGCUUUGGUGGCGCGAUAGCACCAACGUCCUCAACCUCCAAUGCAUCCCACCACAUGAUGAUGCCUGAAGAGCCUUGGUUUUUUG,-2.84
13,GACCAAUCUGCCCUCAGAGCUCGAGAACAUCUUCGGAUGCAGAGGAGGCAGGCUUUGGUGGCGCGAUAGCUCCAACGUCCUCAACCUCCAAUGCAUCCCACCACAUGAUGAUGCCUGAAGAGCCUUGGUUUUUUG,-1.85
14,GACCAAUCUGCCCUCAGAGCUCGAGAACAUCUUCGGAUGCAGAGGAGGCAGGCUUCAGUAGCGCGAUAGCGCCAACGUCCUCAACCUCCAAUGCAUCCCACCACAUGAUGAUGCCUGAAGAGCCUUGGUUUUUUG,-0.384
15,GACCAAUCUGCCCUCAGAGCUCGAGAACAUCUUCGGAUGCAGAGGAGGCAGGCUUCAGUGGCGCGAUAGCGCGAACGUCCUCAACCGCCAAUGCAUCCCACCACAUGAUGAUGCCUGAAGAGCCAUGGUUUUUUG,-1.37
16,GACCAAUCUGCCCUCAGAGCUCGAGAACAUCUUCGGAUGCAGAGGAGGCAGGCUUUGGUGGCGCGAUAGCGCCAACGUCCUCAACCUCCAAUGCAUCCCACCACAUGAUGAUUCCUGAAAAGCCUUGGUUUUUUG,-3.03
17,GACCAAUCUGCCCUCAGAGCUCGAGAACAUCUUCGGAUGCAGAGGAGGCAGGCUUCAGUGGCGCGAUAGCGCCAACCUCCUCAACCUCCAAUGCAUCCCACCACAUGAUGAUGCCUGAAGAGCCUUGGUUUUUUG,-2.28
18,GACCAAUCUGCCCUCAGAGCUCGAGAACAUCUUCGGAUGCAGAGGAGGCAGGCUUUGGUGGCGCGAUAGCGCCAACGUCCUCAACCUCCAACGCAUCCCACCACAUGAUGAUGCCUGAAGAGCCUUGGUUUUUUG,-0.619
19,GACCAAUCUGCCCUCAGAGCUCGAGAACAUCUUCGGAUGCAGAGGAGGCAGGCUUUGGUGGCUCGAUAGCGCCAACGUCCUCAACCUCCAAUGCAUCCCACCACAUGAUGAUGCCUGAAGAGCCUUGGUUUUUUG,-4.18
20,GACCAAUCUGCCCUCAGAGCUCGAGAACAUCUUCGGAUGCAGAGGAGGCAGGCUUCAGUGGCGCGAUAUCGCCAACGUCCUCAACCUCCAAUGCAUCCCACCACAUGAUGAUGCCUGAAGAGCCUUGGUUUUUUG,-0.426
21,GACCAAUCUGCCCUCAGAGCUCGAGAACAUCUUCGGAUGCAGAGGAGGCAGGCUUCAGUGGCGCGAUAGCGCCAACGCCCUCAACCUCCAAUGCAUCCCACCACAUGAUGAUGCCUGAAGAGCCUUGGUUUUUUG,-1.27
